The values below come from patent US4978608.

Read-outs that look alike come from different tables or passages of the source.

The test system of series [1] is single-stranded DNA binding protein (SSB, BP), immobilized (Escherichia coli). To be noted: BP 50 ug/ml adsorbed on nitrocellulose, BSA blocked; sample in 10 mg/ml BSA.
For series [2] the test system is unchanged. Particulars: BP 0.2 mg/ml on Immobilon membrane; 10-1000 pg DNA in 10 mg/ml BSA; 80% captured with BP at 1 mg/ml.

With 32P-labeled single-stranded DNA, the binding signal in series [1] was determined as 36 % captured; in series [2] it was 70 % captured.
